The supplement of paper PMC5998384

What was measured:
[1] = system: HeLa Kyoto; experiment: solubility in G1/S (NP-40 vs SDS abundance) (log2 ratio); higher = more soluble; details: cell cycle stage: G1/S
[2] = system: HeLa Kyoto; experiment: melting temperature (median over replicates), in situ; higher = more thermally stable
[3] = system: HeLa Kyoto; experiment: solubility change mitosis vs G1/S (difference of NP-40 vs SDS log2 ratios) (log2 ratio difference); higher = more soluble in mitosis
[4] = system: HeLa Kyoto; experiment: thermal stability score vs G1/S (z-score of summed log2 fold changes over temperatures); higher = more thermally stable than in G1/S
[5] = cell cycle stage: early G1 (4.5 h after nocodazole release)
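Wherever melting temperature (median over replicates), in situ is given: HeLa Kyoto cells synchronized by double thymidine or nocodazole block, proteins quantified by TMT10plex mass spectrometry, three independent biological replicates.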
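Wherever solubility change mitosis vs G1/S (difference of NP-40 vs SDS log2 ratios) is given: synchronized HeLa Kyoto cells (double thymidine block for G1/S, nocodazole release for mitosis), protein amounts in NP-40 versus SDS lysates quantified by mass spectrometry, three biological replicates.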
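Wherever solubility in G1/S (NP-40 vs SDS abundance) is given: HeLa Kyoto cells arrested at G1/S by double thymidine block, proteins quantified by TMT10plex mass spectrometry in mild NP-40 versus SDS extracts, three biological replicates.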
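Wherever thermal stability score vs G1/S (z-score of summed log2 fold changes over temperatures) is given: synchronized HeLa Kyoto cells, proteins quantified by TMT10plex mass spectrometry, three biological replicates, mitosis taken 0.5 h after nocodazole release, G1/S directly after double thymidine block.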

Substance	solubility in G1/S (log2) [1]	melting temperature ([2]; cell cycle stage: G1/S) [°C]	melting temperature ([2]; cell cycle stage: mitosis) [°C]	solubility change mitosis (log2) [3]	thermal stability score [4, 5]	thermal stability score ([4]; cell cycle stage: mitosis)
MTSFRLALIQLQISSIKSDNVTRACSFIREAATQGAKIVSLPECFNSPYGAKYFPEYAEKIPGESTQKLSEVAKECSIYLIGGSIPEEDAGKLYNTCAVFGPDGTLLAKYRKIHLFDIDVPGKITFQESKTLSPGDSFSTFDTPYCRVGLGICYDMRFAELAQIYAQRGCQLLVYPGAFNLTTGPAHWELLQRSRAVDNQVYVATASPARDDKASYVAWGHSTVVNPWGEVLAKAGTEEAIVYSDIDLKKLAEIRQQIPVFRQKRSDLYAVEMKKP [NIT2]	0.178	54.5	54.4	-0.0539	-0.442	-1.62
MRLLRRRHMPLRLAMVGCAFVLFLFLLHRDVSSREEATEKPWLKSLVSRKDHVLDLMLEAMNNLRDSMPKLQIRAPEAQQTLFSINQSCLPGFYTPAELKPFWERPPQDPNAPGADGKAFQKSKWTPLETQEKEEGYKKHCFNAFASDRISLQRSLGPDTRPPECVDQKFRRCPPLATTSVIIVFHNEAWSTLLRTVYSVLHTTPAILLKEIILVDDASTEEHLKEKLEQYVKQLQVVRVVRQEERKGLITARLLGASVAQAEVLTFLDAHCECFHGWLEPLLARIAEDKTVVVSPDIVTIDLNTFEFAKPVQRGRVHSRGNFDWSLTFGWETLPPHEKQRRKDETYPIKSPTFAGGLFSISKSYFEHIGTYDNQMEIWGGENVEMSFRVWQCGGQLEIIPCSVVGHVFRTKSPHTFPKGTSVIARNQVRLAEVWMDSYKKIFYRRNLQAAKMAQEKSFGDISERLQLREQLHCHNFSWYLHNVYPEMFVPDLTPTFYGAIKNLGTNQCLDVGENNRGGKPLIMYSCHGLGGNQYFEYTTQRDLRHNIAKQLCLHVSKGALGLGSCHFTGKNSQVPKDEEWELAQDQLIRNSGSGTCLTSQDKKPAMAPCNPSDPHQLWLFV [GALNT6]	0.0486	53.6	53.2	-0.117	4	5.54
MADPRVRQIKIKTGVVKRLVKEKVMYEKEAKQQEEKIEKMRAEDGENYDIKKQAEILQESRMMIPDCQRRLEAAYLDLQRILENEKDLEEAEEYKEARLVLDSVKLEA [TBCA]	0.241	55.4	53	0.298	-7.45	-6.72
TOP2A	-2.15	51	52.8	-0.207	-0.453	3.49
MSEEQFGGDGAAAAATAAVGGSAGEQEGAMVAATQGAAAAAGSGAGTGGGTASGGTEGGSAESEGAKIDASKNEEDEGHSNSSPRHSEAATAQREEWKMFIGGLSWDTTKKDLKDYFSKFGEVVDCTLKLDPITGRSRGFGFVLFKESESVDKVMDQKEHKLNGKVIDPKRAKAMKTKEPVKKIFVGGLSPDTPEEKIREYFGGFGEVESIELPMDNKTNKRRGFCFITFKEEEPVKKIMEKKYHNVGLSKCEIKVAMSKEQYQQQQQWGSRGGFAGRARGRGGGPSQNWNQGYSNYWNQGYGNYGYNSQGYGGYGGYDYTGYNNYYGYGDYSNQQSGYGKVSRRGGHQNSYKPY [HNRNPD]	0.068	55.6	54.9	0.191	-3.11	-2.98
MKI67	-1.82	49.4	52	1.29	5.66	0.979
